# From patent US20100260668A1 (published 2010)
# Where “and” joins values, the source holds several entries; their conditions need not be identical. Equal entries are not always repeated.
# B1: DVD486 (bispecific antibody, human IgG1, kappa)
# heavy: not shown
# light: DIQMTQSPSSLSASVGDRVTITCRASQVIRRSLAWYQQKPGKAPKLLIYAASNLASGVPSRFSGSGSGTDFTLTISSLQPEDFATYYCQQSNTSPLTFGQGTKVEIKRTVAAPSVFIFPPDIQMTQSPSSLSASVGDRVTITCRASQDVSTAVAWYQQKPGKAPKLLIYSASFLYSGVPSRFSGSGSGTDFTLTISSLQPEDFATTYYCQQSYTGTVTFGQGTKVEIKRTVAAPSVFIFPPSDEQLKSGTASVVCLLNNFYPREAKVQWKVDNALQSGNSQESVTEQDSKDSTYSLSSTLTLSKADYEKHKVYACEVTHQGLSSPVTKSFNRGEC
# notes: DVD-Ig; outer AB071 (VEGF), inner AB015 (DLL4); HC short, LC long linker; also called DVD486H; DVD486L
# B2: DVD504 (bispecific antibody, human IgG1, kappa)
# heavy: not shown
# light: DIQMTQSPSSLSASVGDRVTITCRASQVIRRSLAWYQQKPGKAPKLLIYAASNLASGVPSRFSGSGSGTDFTLTISSLQPEDFATYYCQQSNTSPLTFGQGTKVEIKRTVAAPDIQMTQSSSYLSVSLGGRVTITCKASDHINNWLAWYQQKPGNAPRLLISGATSLETGVPSRFSGSGSGKDYTLSITSLQTEDVATYYCQQYWSIPLTFGAGTKLELKRTVAAPSVFIFPPSDEQLKSGTASVVCLLNNFYPREAKVQWKVDNALQSGNSQESVTEQDSKDSTYSLSSTLTLSKADYEKHKVYACEVTHQGLSSPVTKSFNRGEC
# notes: DVD-Ig; outer AB071 (VEGF), inner AB072 (DLL4); HC long, LC short linker; also called DVD504H; DVD504L
# B3: DVD528 (bispecific antibody, human IgG1, lambda)
# heavy: not shown
# light: DIQMTQSPSSLSASVGDRVTITCRASQVIRRSLAWYQQKPGKAPKLLIYAASNLASGVPSRFSGSGSGTDFTLTISSLQPEDFATYYCQQSNTSPLTFGQGTKVEIKRTVAAPQAVVTQESALTTSPGETVTLTCRSSTGAVTTSNYANWVQEKPDHLFTGLIGGTNNRAPGVPARFSGSLIGDKAALTITGAQTEDEAIYFCALWYSNHWVFGGGTKLTVLGQPKAAPSVTLFPPSSEELQANKATLVCLISDFYPGAVTVAWKADSSPVKAGVETTTPSKQSNNKYAASSYLSLTPEQWKSHRSYSCQVTHEGSTVEKTVAPTECS
# notes: DVD-Ig; outer AB071 (VEGF), inner AB073 (DLL4); HC long, LC short linker; also called DVD528H; DVD528L
# B4: DVD510 (bispecific antibody, human IgG1, kappa)
# heavy: not shown
# light: DIQMTQSPSSLSASVGDRVTITCRASQVIRRSLAWYQQKPGKAPKLLIYAASNLASGVPSRFSGSGSGTDFTLTISSLQPEDFATYYCQQSNTSPLTFGQGTKVEIKRTVAAPSVFIFPPDIQMTQSSSYLSVSLGGRVTITCKASDHINNWLAWYQQKPGNAPRLLISGATSLETGVPSRFSGSGSGKDYTLSITSLQTEDVATYYCQQYWSIPLTFGAGTKLELKRTVAAPSVFIFPPSDEQLKSGTASVVCLLNNFYPREAKVQWKVDNALQSGNSQESVTEQDSKDSTYSLSSTLTLSKADYEKHKVYACEVTHQGLSSPVTKSFNRGEC
# notes: DVD-Ig; outer AB071 (VEGF), inner AB072 (DLL4); HC short, LC long linker; also called DVD510H; DVD510L
# B5: DVD482 (bispecific antibody, human IgG1, kappa)
# heavy: not shown
# light: DIQMTQSPSSLSASVGDRVTITCSASQDISNYLNWYQQKPGKAPKVLIYFTSSLHSGVPSRFSGSGSGTDFTLTISSLQPEDFATYYCQQYSTVPWTFGQGTKVEIKRTVAAPSVFIFPPDIQMTQSPSSLSASVGDRVTITCRASQDVSTAVAWYQQKPGKAPKLLIYSASFLYSGVPSRFSGSGSGTDFTLTISSLQPEDFATTYYCQQSYTGTVTFGQGTKVEIKRTVAAPSVFIFPPSDEQLKSGTASVVCLLNNFYPREAKVQWKVDNALQSGNSQESVTEQDSKDSTYSLSSTLTLSKADYEKHKVYACEVTHQGLSSPVTKSFNRGEC
# notes: DVD-Ig; HC short, LC long linker; also called DVD482H; DVD482L
# B6: AB005 (antibody, human IgG1, kappa, V domains shown)
# VH: EVQLVQSGGGLVKPGGSLRLSCAASGFTFSSYAMHWVRQAPGKGLEWVAVISYDGSNKYYADSVKGRFTISRDNSKNTLYLQMNSLRAEDTAVYYCARFSGWPNNYYYYGMDVWGQGTTVTVSS
# VL: DVVMTQSPLSLPVTPGEPASISCRSSQSLLHSNGFNYVDWYLQKPGQSPHLLIYFGSYRASGVPDRFSGSGSGTDFTLKISRVEAEDVGVYYCMQALQTPPWTFGQGTKVEIRR
# B7: DVD530 (bispecific antibody, human IgG1, kappa, lambda, L234A L235A)
# heavy: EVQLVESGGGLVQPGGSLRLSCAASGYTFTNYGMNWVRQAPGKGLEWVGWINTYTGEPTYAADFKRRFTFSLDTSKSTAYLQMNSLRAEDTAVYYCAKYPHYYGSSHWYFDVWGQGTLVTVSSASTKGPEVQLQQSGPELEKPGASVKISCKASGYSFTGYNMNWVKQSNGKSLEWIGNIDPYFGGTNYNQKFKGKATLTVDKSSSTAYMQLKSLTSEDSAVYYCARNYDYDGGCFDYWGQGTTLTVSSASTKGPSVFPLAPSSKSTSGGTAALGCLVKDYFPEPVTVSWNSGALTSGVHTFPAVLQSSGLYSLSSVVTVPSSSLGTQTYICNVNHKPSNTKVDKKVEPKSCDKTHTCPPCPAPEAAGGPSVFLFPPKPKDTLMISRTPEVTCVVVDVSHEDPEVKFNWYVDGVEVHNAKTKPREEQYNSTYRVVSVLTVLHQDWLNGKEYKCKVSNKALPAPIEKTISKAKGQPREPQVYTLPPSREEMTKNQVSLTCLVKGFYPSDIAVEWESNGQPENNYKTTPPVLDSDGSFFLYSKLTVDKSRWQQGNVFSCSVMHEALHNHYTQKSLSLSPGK
# light: DIQMTQSPSSLSASVGDRVTITCSASQDISNYLNWYQQKPGKAPKVLIYFTSSLHSGVPSRFSGSGSGTDFTLTISSLQPEDFATYYCQQYSTVPWTFGQGTKVEIKRTVAAPSVFIFPPQAVVTQESALTTSPGETVTLTCRSSTGAVTTSNYANWVQEKPDHLFTGLIGGTNNRAPGVPARFSGSLIGDKAALTITGAQTEDEAIYFCALWYSNHWVFGGGTKLTVLGQPKAAPSVTLFPPSSEELQANKATLVCLISDFYPGAVTVAWKADSSPVKAGVETTTPSKQSNNKYAASSYLSLTPEQWKSHRSYSCQVTHEGSTVEKTVAPTECS
# notes: DVD-Ig; HC short, LC long linker; also called DVD530H; DVD530L
# B8: DVD464 (bispecific antibody, human IgG1, kappa)
# heavy: not shown
# light: DIQMTQSPSSLSASVGDRVTITCRASQVIRRSLAWYQQKPGKAPKLLIYAASNLASGVPSRFSGSGSGTDFTLTISSLQPEDFATYYCQQSNTSPLTFGQGTKVEIKRTVAAPSVFIFPPDIVMTQSPDSLAVSLGERATISCRASESVDNYGISFMKWFQQKPGQPPKLLIYAASNQGSGVPDRFSGSGSGTDFTLTISSLQAEDVAVYYCQQSKEVPWTFGGGTKVEIKRTVAAPSVFIFPPSDEQLKSGTASVVCLLNNFYPREAKVQWKVDNALQSGNSQESVTEQDSKDSTYSLSSTLTLSKADYEKHKVYACEVTHQGLSSPVTKSFNRGEC
# notes: DVD-Ig; outer AB071 (VEGF), inner AB069 (DLL4); HC short, LC long linker; also called DVD464H; DVD464L
# B9: DVD043 (bispecific antibody, human IgG1, kappa)
# heavy: not shown
# light: DIQMTQSPSSLSASVGDRVTITCSASQDISNYLNWYQQKPGKAPKVLIYFTSSLHSGVPSRFSGSGSGTDFTLTISSLQPEDFATYYCQQYSTVPWTFGQGTKVEIKRTVAAPDIQMTQSPSSLSASVGDRVTITCRASQDVSTAVAWYQQKPGKAPKLLIYSASFLYSGVPSRFSGSGSGTDFTLTISSLQPEDFATTYYCQQSYTGTVTFGQGTKVEIKRTVAAPSVFIFPPSDEQLKSGTASVVCLLNNFYPREAKVQWKVDNALQSGNSQESVTEQDSKDSTYSLSSTLTLSKADYEKHKVYACEVTHQGLSSPVTKSFNRGEC
# B10: DVD534 (bispecific antibody, human IgG1, kappa, lambda, L234A L235A)
# heavy: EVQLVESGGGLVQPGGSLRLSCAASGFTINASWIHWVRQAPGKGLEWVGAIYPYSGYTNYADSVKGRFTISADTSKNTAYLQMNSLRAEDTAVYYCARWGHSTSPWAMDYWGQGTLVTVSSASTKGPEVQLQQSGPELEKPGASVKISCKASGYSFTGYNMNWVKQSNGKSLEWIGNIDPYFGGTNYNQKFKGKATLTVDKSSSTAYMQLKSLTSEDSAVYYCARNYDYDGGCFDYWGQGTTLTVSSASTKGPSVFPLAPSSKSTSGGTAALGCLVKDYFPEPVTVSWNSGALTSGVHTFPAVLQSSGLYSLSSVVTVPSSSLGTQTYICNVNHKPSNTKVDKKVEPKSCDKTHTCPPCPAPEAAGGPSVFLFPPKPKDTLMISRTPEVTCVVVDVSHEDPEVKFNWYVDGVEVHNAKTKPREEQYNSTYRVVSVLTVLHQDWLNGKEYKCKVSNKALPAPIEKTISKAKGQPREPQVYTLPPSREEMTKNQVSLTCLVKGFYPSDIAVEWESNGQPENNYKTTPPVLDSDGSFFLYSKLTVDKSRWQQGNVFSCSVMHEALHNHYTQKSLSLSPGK
# light: DIQMTQSPSSLSASVGDRVTITCRASQVIRRSLAWYQQKPGKAPKLLIYAASNLASGVPSRFSGSGSGTDFTLTISSLQPEDFATYYCQQSNTSPLTFGQGTKVEIKRTVAAPSVFIFPPQAVVTQESALTTSPGETVTLTCRSSTGAVTTSNYANWVQEKPDHLFTGLIGGTNNRAPGVPARFSGSLIGDKAALTITGAQTEDEAIYFCALWYSNHWVFGGGTKLTVLGQPKAAPSVTLFPPSSEELQANKATLVCLISDFYPGAVTVAWKADSSPVKAGVETTTPSKQSNNKYAASSYLSLTPEQWKSHRSYSCQVTHEGSTVEKTVAPTECS
# notes: DVD-Ig; outer AB071 (VEGF), inner AB073 (DLL4); HC short, LC long linker; also called DVD534H; DVD534L
# B11: DVD041 (bispecific antibody, human IgG1, lambda)
# heavy: not shown
# light: DIQMTQSPSSLSASVGDRVTITCSASQDISNYLNWYQQKPGKAPKVLIYFTSSLHSGVPSRFSGSGSGTDFTLTISSLQPEDFATYYCQQYSTVPWTFGQGTKVEIKRTVAAPQSVLTQPPSVSAAPGQKVTISCSGSSSNIENNHVSWYQQLPGTAPKLLIYDNNKRPSGIPDRFSGSKSGTSATLGITGLQTGDEADYYCETWDTSLSAGRVFGGGTKLTVLGQPKAAPSVTLFPPSSEELQANKATLVCLISDFYPGAVTVAWKADSSPVKAGVETTTPSKQSNNKYAASSYLSLTPEQWKSHRSYSCQVTHEGSTVEKTVAPTECS
# notes: N-terminal VD VEGF, C-terminal VD IGF1,2; also called DVD041H; DVD041L
# B12: DVD506 (bispecific antibody, human IgG1, kappa)
# heavy: not shown
# light: DIQMTQSPSSLSASVGDRVTITCSASQDISNYLNWYQQKPGKAPKVLIYFTSSLHSGVPSRFSGSGSGTDFTLTISSLQPEDFATYYCQQYSTVPWTFGQGTKVEIKRTVAAPSVFIFPPDIQMTQSSSYLSVSLGGRVTITCKASDHINNWLAWYQQKPGNAPRLLISGATSLETGVPSRFSGSGSGKDYTLSITSLQTEDVATYYCQQYWSIPLTFGAGTKLELKRTVAAPSVFIFPPSDEQLKSGTASVVCLLNNFYPREAKVQWKVDNALQSGNSQESVTEQDSKDSTYSLSSTLTLSKADYEKHKVYACEVTHQGLSSPVTKSFNRGEC
# notes: DVD-Ig; HC short, LC long linker; also called DVD506H; DVD506L
# B13: AB015 (antibody, human IgG1, kappa)
# heavy: not shown
# light: DIQMTQSPSSLSASVGDRVTITCRASQDVSTAVAWYQQKPGKAPKLLIYSASFLYSGVPSRFSGSGSGTDFTLTISSLQPEDFATTYYCQQSYTGTVTFGQGTKVEIKRTVAAPSVFIFPPSDEQLKSGTASVVCLLNNFYPREAKVQWKVDNALQSGNSQESVTEQDSKDSTYSLSSTLTLSKADYEKHKVYACEVTHQGLSSPVTKSFNRGEC
# B14: DVD047 (bispecific antibody, human IgG1, kappa)
# heavy: not shown
# light: DIQMTQSPSSLSASVGDRVTITCSASQDISNYLNWYQQKPGKAPKVLIYFTSSLHSGVPSRFSGSGSGTDFTLTISSLQPEDFATYYCQQYSTVPWTFGQGTKVEIKRTVAAPDVVMTQSPLSLPVTPGEPASISCRSSQSLLHSNGFNYVDWYLQKPGQSPHLLIYFGSYRASGVPDRFSGSGSGTDFTLKISRVEAEDVGVYYCMQALQTPPWTFGQGTKVEIRRTVAAPSVFIFPPSDEQLKSGTASVVCLLNNFYPREAKVQWKVDNALQSGNSQESVTEQDSKDSTYSLSSTLTLSKADYEKHKVYACEVTHQGLSSPVTKSFNRGEC
# Legend:
# [1] = biological target: T1, DLL4 ECD/His tag (R&D 1506-D4-050) (UniProt Q9NR61 27-529); assay: direct bind ELISA, DLL4 on plate; DLL4 VD C-term.; HC Short, LC Long
# T1 construct: extracellular domain; Bought antigen coated on the ELISA plate; not shown: His tag
# [2] = biological target: T1, DLL4 ECD/His tag (R&D 1506-D4-050); assay: direct bind ELISA, DLL4 on plate; DLL4 VD C-term.; HC Long, LC Short
# MSP Receptor ECD-His tag = biological target: T2, MSP Receptor ECD-His tag (UniProt Q04912 25-957, limits assumed); assay: Biacore SPR
# T2 construct: extracellular domain; Bought reagent; also called RON; not shown: His tag
# [3] = biological target: recombinant human VEGF165 (human, UniProt P15692-4 27-191); assay: cell-based or functional assay
# [4] = biological target: human DLL4 extracellular domain (human, UniProt Q9NR61 27-529); assay: cell-based or functional assay
# IGF-2 = biological target: T3, IGF-2 (UniProt P01344 25-91); assay: Biacore SPR
# T3 construct: Bought reagent
# Chain of recombinant human VEGF165 (P15692 other isoform, or with tags, fused parts or gaps limits assumed): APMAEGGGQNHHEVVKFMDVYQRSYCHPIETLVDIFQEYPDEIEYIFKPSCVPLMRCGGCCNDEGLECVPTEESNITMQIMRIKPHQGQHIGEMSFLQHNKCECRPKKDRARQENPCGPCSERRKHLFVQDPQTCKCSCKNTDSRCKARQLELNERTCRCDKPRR
binder,measurement,setting,value
B1,EC50,[1],0.59 nM
B2,EC50,[2],0.53 nM
B3,EC50,[2],0.81 nM
B4,EC50,[1],0.42 nM
B5,EC50,[1],0.36 nM
B6,Kd,MSP Receptor ECD-His tag,20.2 nM and 20.1 nM
same,koff,MSP Receptor ECD-His tag,0.000739 s⁻¹
same,kon,MSP Receptor ECD-His tag,36600 M⁻¹ s⁻¹
B7,EC50,[1],0.22 nM
B8,EC50,[1],0.8 nM
B9,% inhibition of HUVEC proliferation at 0.67 nM,[3],-22%
same,% inhibition of HUVEC proliferation at 6.7 nM,[3],51%
same,% inhibition of HUVEC proliferation at 67 nM,[3],89%
same,"Soluble Flt1 Assay, % of Neutralization @ 9.2 nM Ab",[4],1.1%
same,"Soluble Flt1 Assay, % of Neutralization @ 27.7 nM Ab",[4],50.3%
same,"Soluble Flt1 Assay, % of Neutralization @ 83.3 nM Ab",[4],57.9%
B10,EC50,[1],0.47 nM
B11,Kd,IGF-2,< 0.0124 nM
same,koff,IGF-2,< 1e-06 s⁻¹
same,kon,IGF-2,80900 M⁻¹ s⁻¹
B12,EC50,[1],0.32 nM
B13,"Soluble Flt1 Assay, % of Neutralization @ 9.2 nM Ab",[4],75.2%
same,"Soluble Flt1 Assay, % of Neutralization @ 27.7 nM Ab",[4],78.7%
same,"Soluble Flt1 Assay, % of Neutralization @ 83.3 nM Ab",[4],86.6%
B14,% inhibition of HUVEC proliferation at 0.67 nM,[3],-5%
same,% inhibition of HUVEC proliferation at 6.7 nM,[3],31%
same,% inhibition of HUVEC proliferation at 67 nM,[3],65%
